Laboratory results: US20260263520A1 (OSLO UNIVERSITETSSYKEHUS HF, published 2026)

B1: parental Oslo-2 monoclonal antibody (antibody, V domains shown)
VH: EVQILETGGGLVKPGGSLRLSCATSGFNFNDYFMNWVRQAPGKGLEWIAQIRNKNYNYATYFAESLEGRFTISRDDSKSSVYLQVNSLRAEDTALYYCTELRYDYWGQGVMVTVSS
VL: DIVMTQSPFSLAVSEGEMVTINCKSSQSLLSSGNQKNNLAWYQQKPGQSPKLLIYYASTRQSGVPDRFIGSGSGTDFTLTISDVQAEDLADYYCLQHYSSPYTFGAGTKLELK
notes: also called Oslo-2 antibody; Oslo-2 parental antibody
B2: Oslo-2 mAb variant Mutant 4 (L:S31W/L:H107W) (antibody, V domains shown)
VH: EVQILETGGGLVKPGGSLRLSCATSGFNFNDYFMNWVRQAPGKGLEWIAQIRNKNYNYATYFAESLEGRFTISRDDSKSSVYLQVNSLRAEDTALYYCTELRYDYWGQGVMVTVSS
VL: DIVMTQSPFSLAVSEGEMVTINCKSSQSLLWSGNQKNNLAWYQQKPGQSPKLLIYYASTRQSGVPDRFIGSGSGTDFTLTISDVQAEDLADYYCLQWYSSPYTFGAGTKLEIK
notes: Only variable domains are tied to the molecule; also called Variant 4; variant 4
B3: Oslo-2 mAb variant Mutant 5 (L:S31M) (antibody, V domains shown)
VH: EVQILETGGGLVKPGGSLRLSCATSGFNFNDYFMNWVRQAPGKGLEWIAQIRNKNYNYATYFAESLEGRFTISRDDSKSSVYLQVNSLRAEDTALYYCTELRYDYWGQGVMVTVSS
VL: DIVMTQSPFSLAVSEGEMVTINCKSSQSLLMSGNQKNNLAWYQQKPGQSPKLLIYYASTRQSGVPDRFIGSGSGTDFTLTISDVQAEDLADYYCLQHYSSPYTFGAGTKLEIK
notes: Only variable domains are tied to the molecule; also called Variant 5; variant 5

Biological target: antigen derived from p95HER2 (protein sequence …)
Experiment: indirect ELISA, antigen coated at 2.5 ug/mL, antibody in 3-fold dilutions from 3.0 ug/mL, absorbance at 450 nm
Protocol: Antibody binding was determined by indirect ELISA. A microtitre plate was coated with 50 μL antigen (protein sequence: […]) (SEQ ID NO: 36) at 2.5 μg/mL for 1 hour with shaking at 300 rpm then blocked with 200 μL 1% casein in PBS for 16 hours at 4° C. The plate was washed twice with PBS containing 0.05% Tween-20. In a separate offline microplate, antibody test samples were prepared in duplicate in a 3-fold serial dilution starting at 3.0 ug/mL. 50 μL of each test sample was transferred to the assay plate and incubated for 1 hour with shaking at 300 rpm. The plate was washed four times with PBS containing 0.05% Tween-20. 50 μL of horse radish peroxidase (HRP) labelled anti-human IgG antibody (catalogue number A8792, Sigma) at a dilution of 1:4000 was added to each well and incubated for 1 hour with shaking at 300 rpm. The plate was washed four times with PBS containing 0.05% Tween-20 and twice with water. 100 μL Tetramethylbenzidine (TMB) substrate (catalogue number 10076433, Fisher) was added and incubated for 10 minutes. The reaction was stopped by addition of 50 μL IM HCl and absorbance was measured at 450 nm using a Byonoy plate reader.

Binding result, binds:
B1
B2
B3
